Literature values as cited in patent US8232228B2 (priority 2002, dated 2012).

B1: HarpinEa: Hypersensitive response elicitor protein from Erwinia amylovora, amino acid sequence SEQ. ID. No. 3 (protein)
chain: MSLNTSGLGASTMQISIGGAGGNNGLLGTSRQNAGLGGNSALGLGGGNQNDTVNQLAGLLTGMMMMMSMMGGGGLMGGGLGGGLGNGLGGSGGLGEGLSNALNDMLGGSLNTLGSKGGNNTTSTTNSPLDQALGINSTSQNDDSTSGTDSTSDSSDPMQQLLKMFSEIMQSLFGDGQDGTQGSSSGGKQPTEGEQNAYKKGVTDALSGLMGNGLSQLLGNGGLGGGQGGNAGTGLDGSSLGGKGLQNLSGPVDYQQLGNAVGTGIGMKAGIQALNDIGTHRHSSTRSFVNKGDRAMAKEIGQFMDQYPEVFGKPQYQKGPGQEVKTDDKSWAKALSKPDDDGMTPASMEQFNKAKGMIKRPMAGDTGNGNLQARGAGGSSLGIDAMMAGDAINNMALGKLGAA
modifications: Erwinia amylovora - harpinEa
Question: Which “heat stable at 100° C.” value does the source give for B1 here?
Answer: Its value is “at least 10 minutes”.
